Results from patent publication US20130078188.

Columns and labels:
[1] = molecular target: T1, Cy7-NH-e9-c(S-Peg12) oPPRSFL-r9-c(Cy5)-CONH2 (10, …)
T1 chain: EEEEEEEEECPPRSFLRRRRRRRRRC

[2] = molecular target: T2, Cy7-NH-e9-c(S-Peg12)oPLGC(Me)AG-r9-c(Cy5)-CONH2 (20, …(Me)AG)
T2 chain: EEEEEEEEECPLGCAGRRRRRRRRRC

[3] = molecular target: T3, Cy7-NH-e9-c(S-Peg12) oDPRSFL-r9-c(Cy5)-CONH2 (5, …)
T3 chain: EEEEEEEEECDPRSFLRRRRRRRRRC

B1: plasmin (protein)
chain: KVYLSECKTGNGKNYRGTMSKTKNGITCQKWSSTSPHRPRFSPATHPSEGLEENYCRNPDNDPQGPWCYTTDPEKRYDYCDILECEEECMHCSGENYDGKISKTMSGLECQAWDSQSPHAHGYIPSKFPNKNLKKNYCRNPDRELRPWCFTTDPNKRWELCDIPRCTTPPPSSGPTYQCLKGTGENYRGNVAVTVSGHTCQHWSAQTPHTHNRTPENFPCKNLDENYCRNPDGKRAPWCHTTNSQVRWEYCKIPSCDSSPVSTEQLAPTAPPELTPVVQDCYHGDGQSYRGTSSTTTTGKKCQSWSSMTPHRHQKTPENYPNAGLTMNYCRNPDADKGPWCFTTDPSVRWEYCNLKKCSGTEASVVAPPPVVLLPDVETPSEEDCMFGNGKGYRGKRATTVTGTPCQDWAAQEPHRHSIFTPETNPRAGLEKNYCRNPDGDVGGPWCYTTNPRKLYDYCDVPQCAAPSFDCGKPQVEPKKCPGRVVGGCVAHPHSWPWQVSLRTRFGMHFCGGTLISPEWVLTAAHCLEKSPRPSSYKVILGAHQEVNLEPHVQEIEVSRLFLEPTRKDIALLKLSSPAVITDKVIPACLPSPNYVVADRTECFITGWGETQGTFGAGLLKEAQLPVIENKVCNRYEFLNGRVQSTELCAGHLAGGTDSCQGDSGGPLVCFEKDKYILQGVTSWGLGCARPNKPGVYVRVSRFVTWIEGVMRNN
- kcat/Km, fold lower than for thrombin [1]: 14.3 fold lower kcat/Km
- peptide cleavage, SDS-PAGE with Cy5/Cy7 ratio imaging [2]: not cleaved by any of the pro-coagulation enzymes
- kcat/Km [3]: 10000 M⁻¹ s⁻¹
